B1: lamellipodin C-terminal domain fragment LPD^850–1250 with C-terminal His6 tag (domain or fragment, UniProt Q70E73 850-1250, looked up)
chain: PPPSPLSPVPSVVKQIASQFPPPPTPPAMESQPLKPVPANVAPQSPPAVKAKPKWQPSSIPVPSPDFPPPPPESSLVFPPPPPSPVPAPPPPPPPTASPTPDKSGSPGKKTSKTSSPGGKKPPPTPQRNSSIKSSSGAEHPEPKRPSVDSLVSKFTPPAESGSPSKETLPPPAAPPKPGKLNLSGVNLPGVLQQGCVSAKAPVLSGRGKDSVVEFPSPPSDSDFPPPPPETELPLPPIEIPAVFSGNTSPKVAVVNPQPQQWSKMSVKKAPPPTRPKRNDSTRLTQAEISEQPTMATVVPQVPTSPKSSLSVQPGFLADLNRTLQRKSITRHGSLSSRMSRAEPTATMDDMALPPPPPELLSDQQKAGYGGSHISGYATLRRGPPPAPPKRDQNTKLSRDW
modifications: Alexa 647 succinimidyl ester on the labelled fraction
notes: Synthesized and cloned into pGEX6p1 by Biomatik; also called LPD C-terminal domain; source: E. coli BL21-CodonPlus(DE3)-RIL, purified (Ni-NTA agarose, cation exchange); not shown: His6, C-terminal, kept
B2: FBP17 (natural protein, UniProt Q96RU3 1-617, looked up)
chain: MSWGTELWDQFDNLEKHTQWGIDILEKYIKFVKERTEIELSYAKQLRNLSKKYQPKKNSKEEEEYKYTSCKAFISNLNEMNDYAGQHEVISENMASQIIVDLARYVQELKQERKSNFHDGRKAQQHIETCWKQLESSKRRFERDCKEADRAQQYFEKMDADINVTKADVEKARQQAQIRHQMAEDSKADYSSILQKFNHEQHEYYHTHIPNIFQKIQEMEERRIVRMGESMKTYAEVDRQVIPIIGKCLDGIVKAAESIDQKNDSQLVIEAYKSGFEPPGDIEFEDYTQPMKRTVSDNSLSNSRGEGKPDLKFGGKSKGKLWPFIKKNKLMSLLTSPHQPPPPPPASASPSAVPNGPQSPKQQKEPLSHRFNEFMTSKPKIHCFRSLKRGLSLKLGATPEDFSNLPPEQRRKKLQQKVDELNKEIQKEMDQRDAITKMKDVYLKNPQMGDPASLDHKLAEVSQNIEKLRVETQKFEAWLAEVEGRLPARSEQARRQSGLYDSQNPPTVNNCAQDRESPDGSYTEEQSQESEMKVLATDFDDEFDDEEPLPAIGTCKALYTFEGQNEGTISVVEGETLYVIEEDKGDGWTRIRRNEDEEGYVPTSYVEVCLDKNAKDS
modifications: Alexa 488 C5-maleimide
notes: Obtained from Harvey McMahon's lab; also called F-BAR family protein FBP17; FBP17 (Alexa 488); source: E. coli BL21-CodonPlus(DE3)-RIL, purified (GSTrap, size exclusion)
B3: full-length human amphiphysin 1 (natural protein, UniProt P49418 1-695, looked up)
chain: MADIKTGIFAKNVQKRLNRAQEKVLQKLGKADETKDEQFEEYVQNFKRQEAEGTRLQRELRGYLAAIKGMQEASMKLTESLHEVYEPDWYGREDVKMVGEKCDVLWEDFHQKLVDGSLLTLDTYLGQFPDIKNRIAKRSRKLVDYDSARHHLEALQSSKRKDESRISKAEEEFQKAQKVFEEFNVDLQEELPSLWSRRVGFYVNTFKNVSSLEAKFHKEIAVLCHKLYEVMTKLGDQHADKAFTIQGAPSDSGPLRIAKTPSPPEEPSPLPSPTASPNHTLAPASPAPARPRSPSQTRKGPPVPPLPKVTPTKELQQENIISFFEDNFVPEISVTTPSQNEVPEVKKEETLLDLDFDPFKPEVTPAGSAGVTHSPMSQTLPWDLWTTSTDLVQPASGGSFNGFTQPQDTSLFTMQTDQSMICNLAESEQAPPTEPKAEEPLAAVTPAVGLDLGMDTRAEEPVEEAVIIPGADADAAVGTLVSAAEGAPGEEAEAEKATVPAGEGVSLEEAKIGTETTEGAESAQPEAEELEATVPQEKVIPSVVIEPASNHEEEGENEITIGAEPKETTEDAAPPGPTSETPELATEQKPIQDPQPTPSAPAMGAADQLASAREASQELPPGFLYKVETLHDFEAANSDELTLQRGDVVLVVPSDSEADQDAGWLVGVKESDWLQYRDLATYKGLFPENFTRRLD
modifications: Alexa 488 C5-maleimide
notes: amphiphysin 1, human, full length; Plasmid from Pietro De Camilli's lab; also called Amph1; Amph1-Alexa 488
B4: endophilin ΔH0 mutant (domain or fragment)
chain: GGAEGTKLDDDFKEMERKVDVTSRAVMEIMTKTIEYLQPNPASRAKLSMINTMSKIRGQEKGPGYPQAEALLAEAMLKFGRELGDDCNFGPALGEVGEAMRELSEVKDSLDMEVKQNFIDPLQNLHDKDLREIQHHLKKLEGRRLDFDYKKKRQGKIPDEELRQALEKFDESKEIAESSMFNLLEMDIEQVSQLSALVQAQLEYHKQAVQILQQVTVRLEERIRQASSQPRREYQPKPRMSLEFATGDGTQPNGGLSHTGTPKPAGVQMDQPCCRALYDFEPENEGELGFKEGDIITLTNQIDENWYEGMLHGQSGFFPINYVEILVALPH
modifications: Alexa 594 C5-maleimide on the labelled fraction
B5: third intracellular loop (TIL) of the human β1-adrenergic receptor (aa 246–325) (domain or fragment, UniProt P08588 246-325, looked up)
chain: RVFREAQKQVKKIDSCERRFLGGPARPPSPSPSPVPAPAPPPGPPRPAAAAATAPLANGRAGKRRPSRLVALREQKALKT
modifications: Alexa 488 (5-SDP ester) at the N-terminal on the labelled fraction
notes: β1-adrenergic receptor, human, third intracellular loop, 80 amino acids, aa 246–325; Cloned in pGEX6p1; GST cleaved by PreScission protease; also called TIL-Alexa 488; source: E. coli BL21-CodonPlus(DE3)-RIL, purified (GST Trap, cation exchange)
B6: full-length rat endophilin A1 (single-cysteine form) (natural protein, UniProt O35179 1-352, looked up)
chain: MSVAGLKKQFHKATQKVSEKVGGAEGTKLDDDFKEMERKVDVTSRAVMEIMTKTIEYLQPNPASRAKLSMINTMSKIRGQEKGPGYPQAEALLAEAMLKFGRELGDDSNFGPALGEVGEAMRELSEVKDSLDMEVKQNFIDPLQNLHDKDLREIQHHLKKLEGRRLDFDYKKKRQGKIPDEELRQALEKFDESKEIAESSMFNLLEMDIEQVSQLSALVQAQLEYHKQAVQILQQVTVRLCERIRQASSQPRREYQPKPRMSLEFATGDGTQPNGGLSHTGTPKPAGVQMDQPSSRALYDFEPENEGELGFKEGDIITLTNQIDENWYEGMLHGQSGFFPINYVEILVALPH
modifications: Alexa 594 or Alexa 488 C5-maleimide on the small labelled fraction (about 4-10 mol%) mixed with unlabelled protein
notes: endophilin A1, rat, full length, mutated to a single-cysteine form for labeling; also called A1 isoform of endophilin, from rat; full-length endophilin

Experiments:
[1] = biological target: full-length rat endophilin A1 (single-cysteine form) (rat) (UniProt O35179); assay: client partitioning into condensate droplets (confocal microscopy, apparent partition coefficient); endophilin (25 µM) droplets with 10% PEG; Alexa-labeled client at 250 nM to 1 µM mixed in before PEG; 20 mM HEPES, 150 mM NaCl, 1 mM TCEP, pH 7.4, room temperature; apparent
[2] = biological target: full-length rat endophilin A1 (single-cysteine form) (rat) (UniProt O35179)
[3] = biological target: endophilin N-BAR-only mutant (rat); assay: fluorescence intensity ratio of droplets vs. bulk solution (confocal microscopy); 1 µM Alexa 594-labeled variant with 25 µM of the same unlabeled variant, 10% PEG
[4] = biological target: B6; assay: client partitioning into condensate droplets (confocal microscopy, apparent partition coefficient); endophilin (25 µM) droplets with 10% PEG; Alexa-labeled client at 250 nM to 1 µM mixed in before PEG; 20 mM HEPES, 150 mM NaCl, 1 mM TCEP, pH 7.4, room temperature; apparent; details: both partners purified
[5] = biological target: B6; assay: cell-based or functional assay
[6] = biological target: the molecule itself; assay: fluorescence intensity ratio of droplets vs. bulk solution (confocal microscopy); 1 µM Alexa 594-labeled variant with 25 µM of the same unlabeled variant, 10% PEG

| Molecule | apparent partition coefficient (Kapp) [4] | threshold endophilin concentration for LLPS (10% PEG) in the presence of 10 µM client (10 µM without client) [5] | also measured |
| --- | --- | --- | --- |
| PRM7-His: heptameric repeat of a lamellipodin proline-rich motif (aa 970–981) joined by (Gly-Gly-Ser)4 linkers (from UniProt Q70E73 970-981; Q70E73 970-981; Q70E73 970-981; Q70E73 970-981; Q70E73 970-981; Q70E73 970-981; Q70E73 970-981) (designed binder) |  |  | apparent partition coefficient (Kapp) [1]: 26; threshold endophilin concentration for LLPS (10% PEG) in the presence of 10 µM client (10 µM without client) [2]: < 5 µM |
| BIN1 isoform 9 (natural protein) |  |  | apparent partition coefficient (Kapp) [1]: 267 |
| endophilin N-BAR-only mutant (domain or fragment) |  |  | fluorescence intensity ratio inside vs. outside droplets [3]: 1800 |
| B1 | 515 | ≤ 5 µM |  |
| B2 | 1130 | 15 µM |  |
| B3 | 352 | 30 µM |  |
| B4 |  |  | fluorescence intensity ratio inside vs. outside droplets [6]: 380 |
| B5 | 138 | ≤ 5 µM |  |
| B6 |  |  | fluorescence intensity ratio inside vs. outside droplets [6]: 480 |

— PMC9418313, “Multivalent interactions between molecular components involved in fast endophilin mediated endocytosis drive protein phase separation” (Nature Communications, 2022)
